To fix the notation:
B1: 11A1H4-IgG1 (antibody, V domains shown)
VH: QVQLVQSGAEVKKPGASVKVSCKASGYTFTNYVIHWVRQAPGQGLEWMGYINPYNDGTKYNQKFKGRVTLTSDTSTTTAYMELSRLRSDDTAVYYCASGGYYTMDYWGQGTLVASTK
VL: DVVMTQSPLSLPVTLGQPASISCRSSQHLEYSNGYSYLHWYQQRPGQSPRLLIYKISNRFSGVPDRFSGSGSGTDFTLKISRVEAEDVGVYYCSQSTHVPYTFGGGTKVEIKR
notes: Humanised version of clone 1-1-A1, IgG1/kappa; also called 1A11H4
B2: 11A1H6-IgG1 (antibody, V domains shown)
VH: B1 VH
VL: B1 VL with N33Q, I56V, F60D
notes: Humanised version of clone 1-1-A1, IgG1/kappa; also called 1A11H6
B3: anti-CD47 clone 1-1-A1_BM IgG1 (antibody, V domains shown)
VH: QVQLQQSGPDLKKPGASVKVSCKVSGYTFTNYVIHWVRQKPGQGLEWMGYINPYNDGTKSNEKFKGKATLTSDKSSTSAYMELSSLTSEDTAVYYCASGGYYTMDYWGQGTSVTVSS
VL: B1 VL with S7T, Q17D, P18Q, R50Q, V88L, V109L
B4: 11A1H10-IgG1 (antibody, V domains shown)
VH: B1 VH with N31G, D56G, K59N, N61A, D89E, A114T, S115V, T116S, K117S
VL: B1 VL with I56V, F60D
notes: Humanised version of clone 1-1-A1, IgG1/kappa; also called 1A11H10
B5: 11A1H7-IgG1 (antibody, V domains shown)
VH: B1 VH with N31G, D56G, K59N, N61A, D89E, A114T, S115V, T116S, K117S
VL: B1 VL with N33Q, I56V, F60D
notes: Humanised version of clone 1-1-A1, IgG1/kappa; also called 1A11H7
B6: 11A1H11-IgG1 (antibody, V domains shown)
VH: B1 VH with N31G, D56G, K59N, N61A, D89E, A114T, S115V, T116S, K117S
VL: B1 VL with S96G
notes: Humanised version of clone 1-1-A1, IgG1/kappa; also called 1A11H11
B7: 11A1H5-IgG1 (antibody, V domains shown)
VH: B1 VH with N31G, D56G, K59N, N61A, D89E, A114T, S115V, T116S, K117S
VL: B1 VL
notes: Humanised version of clone 1-1-A1, IgG1/kappa; also called 1A11H5
B8: 11A1H9-IgG1 (antibody, V domains shown)
VH: B1 VH with N31G, D56G, K59N, N61A, D89E, A114T, S115V, T116S, K117S
VL: B1 VL with N33T, I56V, F60D
notes: Humanised version of clone 1-1-A1, IgG1/kappa; also called 1A11H9
B9: 11A1H3-IgG1 (antibody, V domains shown)
VH: B1 VH with I34M, Y60S, Q62E, K65Q, T77S, R85S, D89E
VL: B1 VL
notes: Humanised version of clone 1-1-A1, IgG1/kappa; also called 1A11H3
B10: anti-CD47 clone 1-1-A1 IgG1 (antibody, V domains shown)
VH: B3 VH with Q1E, K12V, V20M, V24A, R38K, M48I, T91S
VL: B1 VL with S7T, T14S, Q17D, P18Q, Q42L, R44K, R50Q, V88L, Y92F, V109L

The IC50 is the midpoint of a concentration-inhibition curve. A lower IC50 goes with greater potency. Usually EC50 stands for the concentration needed to bring the measured effect to its halfway point. Broadly, the koff is the first-order rate constant of dissociation. A word on the kon: it is a measure of how fast the partners come together. A word on the Kd: it is a measure of binding affinity in units of concentration.

Positions count from the first letter of the chain named.

The first experiment deals with T1, untagged human CD47 protein (Sinobiological Inc) (human, UniProt Q08722 19-141).
T1 construct: Bought
Kind of experiment: competition ELISA: inhibition of His-tagged SIRPα binding to coated human CD47. Background: An ELISA detects its analyte on a solid surface through an enzyme-linked reagent.
With B1, the “Fold increase in IC50 relative to 1-1-A1_BM” value was found to be 0.32 fold and the IC50 amounted to 0.15 µg/mL.
The matching figures for B2: over 200 fold and over 100 µg/mL.
Take B3: the “Fold increase in IC50 relative to 1-1-A1_BM” value was 1 fold and the IC50 stood at 0.474 µg/mL.
As for B4, the “Fold increase in IC50 relative to 1-1-A1_BM” value was over 200 fold and the half-maximal inhibitory concentration (IC50) is over 100 µg/mL.
Turning to B5, the “Fold increase in IC50 relative to 1-1-A1_BM” value was over 200 fold and the half-maximal inhibitory concentration (IC50) was over 100 µg/mL.
Regarding B6, the “Fold increase in IC50 relative to 1-1-A1_BM” value came to 1.02 fold and the IC50 amounted to 0.483 µg/mL.
B7: the “Fold increase in IC50 relative to 1-1-A1_BM” value was 0.42 fold and the half-inhibitory concentration (IC50) was 0.201 µg/mL.
Turning to B8, the “Fold increase in IC50 relative to 1-1-A1_BM” value is over 200 fold and the IC50 is over 100 µg/mL.

The target of a further experiment is human VISTA protein (human, UniProt Q9H7M9 33-194, limits assumed). The experiment in a line: ELISA on coated human VISTA protein. How it is done: (§1) 96-well plates (Nunc, Denmark) were coated with 1 μg/ml of human CD47 or VISTA protein in PBS, for 1 h at room temperature. Plates were blocked for 1 h at room temperature with 1% BSA in Tris buffer saline containing 0.05% Tween 20 (TBS-T). The test antigen-binding molecules were added at concentrations ranging from to 0.002 μg/ml to 200 μg/ml, and the plates were incubated at room temperature for 1 h. Plates were then washed three times with TBS-T, and were then incubated with a HRP-conjugated secondary antibody for 1 h at room temperature. After washing, plates were developed with colorimetric detection substrate 3,3′,5,5′-tetramethylbenzidine (Turbo-TMB; Pierce, USA). The reaction was stopped after 3.5 min with 2M […], and OD was measured at 450 nm.
In a separate ELISA, the antigen-binding molecules were evaluated for binding to human VISTA.
B1: the binding result was “no binding (tested: 0.002 µg/ml to 200 µg/ml)”.
Same read-out and setting: the value for B9 was “no binding (tested: 0.002 µg/ml to 200 µg/ml)”; that for B2 was “no binding (tested: 0.002 µg/ml to 200 µg/ml)”.
In the case of B3, the binding result was “no binding (tested: 0.002 µg/ml to 200 µg/ml)”.
With B4, the binding result is “no binding (tested: 0.002 µg/ml to 200 µg/ml)”.
As to B5, the binding result is on record as “no binding (tested: 0.002 µg/ml to 200 µg/ml)”.
The same measure, in the same setting: the value for B6 was “no binding (tested: 0.002 µg/ml to 200 µg/ml)”.
As to B7, the binding result is “no binding (tested: 0.002 µg/ml to 200 µg/ml)”.
Same read-out and setting: the entry for B8 is “no binding (tested: 0.002 µg/ml to 200 µg/ml)”.

In a further experiment the target is T2, human CD47 (recombinant protein, construct not stated) (human, UniProt Q08722 19-141).
T2 construct: also called hCD47; human CD47 protein
Kind of experiment: ELISA on coated human CD47. How it is done:
as §1
As for B1, the concentration for a half-maximal effect (EC50) was determined as 0.00018 µg/mL and the “Fold increase in EC50 relative to 1-1-A1_BM” value amounted to 0.1 fold.
The matching figures for B9: 0.00022 µg/mL and 0.12 fold.
For the molecule B2, the 50% effective concentration (EC50) amounted to 13.4 µg/mL and the “Fold increase in EC50 relative to 1-1-A1_BM” value was found to be 7440 fold.
On the same counts, the results for B3 are 0.0018 µg/mL and 1 fold.
Consider B4, for which the EC50 was 38.1 µg/mL and the “Fold increase in EC50 relative to 1-1-A1_BM” value turned out to be 21200 fold.
On the same counts, the results for B5 are 36.8 µg/mL and 20400 fold.
For B6, the 50% effective concentration (EC50) came to 0.0021 µg/mL and the “Fold increase in EC50 relative to 1-1-A1_BM” value turned out to be 1.17 fold.
Consider B7, for which the EC50 was 0.00015 µg/mL and the “Fold increase in EC50 relative to 1-1-A1_BM” value amounted to 0.08 fold.
Regarding B8, the EC50 was found to be 23.5 µg/mL and the “Fold increase in EC50 relative to 1-1-A1_BM” value was 13100 fold.

The target of another experiment is T3, his-tagged human CD47 (human, UniProt Q08722 19-141).
T3 construct: not shown: his tag
The experiment in a line: BLI (Octet), his-tagged human CD47 loaded on anti-Penta-HIS (HIS1K) sensors, antibody as analyte. As to the method: (§2) Buffer baseline was obtained for 30 s, and then sensors were loaded with his-tagged human CD47 (1.2 μM) for 120 s.
(Biolayer interferometry detects binding as a change in optical thickness at a sensor tip.)
With B3, the koff worked out at 0.000618 s⁻¹ and the kon is 59400 M⁻¹ s⁻¹.

In another experiment the target is T2, human CD47 (recombinant protein, …). Kind of experiment: BLI (BLItz), IgG1 captured on anti-human Fc tips, human CD47 as analyte, 1:1 global fit. As to the method: Biosensors were first hydrated for at least 10 m in assay buffer (phosphate buffered saline) followed by buffer baseline for 60 s and loading of the human IgGs onto the biosensor tips at 25 nM for 120 s. The tips were then washed briefly for 60 s with the assay buffer to remove nonspecifically bound proteins or unbound IgGs for obtaining a second buffer baseline. The association phase of the IgGs with antigens (250 nM to 62.5 nM) was set up at 120 s which was followed by a dissociation phase (assay buffer alone) for 120 s. All the BLITz runs were measured at room temperature at a stirring speed of 1000 rpm and AHC biosensors were regenerated using 10 mM of glycine (pH 2.7) after the assay. Binding affinity between the immobilized antibodies on the AHC sensors and human CD47 were determined by analyzing the binding kinetic curves using the software BLItz Pro. All the sensorgrams were reference subtracted and globally fitted into a 1:1 model which analysed the binding curves at different concentrations of antigens and generated kinetic constants (KD/Ka/Kd) for the globally fitted data. All the binding curves were subjected to step correction which corrects the misalignment between association and dissociation steps and only the curves with R² values greater than 0.9 were used for analysis.
B9: the Kd was found to be 3.39 nM, the koff came to 0.000904 s⁻¹ and the kon came to 266000 M⁻¹ s⁻¹.
In the case of B2, the Kd was found to be 134 nM, the koff stood at 0.0144 s⁻¹ and the on-rate constant (kon) was found to be 108000 M⁻¹ s⁻¹.
On to B3, for which the dissociation constant (Kd) amounted to 9.31 nM, the koff came to 0.00121 s⁻¹ and the association rate constant (kon) stood at 130000 M⁻¹ s⁻¹.
B4: the Kd was 111 nM, the koff came out at 0.00898 s⁻¹ and the kon came out at 80900 M⁻¹ s⁻¹.
In the case of B7, the Kd amounted to 9.28 nM, the off-rate (koff) was determined as 0.0012 s⁻¹ and the kon was determined as 129000 M⁻¹ s⁻¹.
With B8, the Kd amounted to 23.3 nM, the off-rate constant (koff) was found to be 0.00635 s⁻¹ and the association rate constant (kon) came to 273000 M⁻¹ s⁻¹.

For a further experiment the target is unchanged. The description is as above. The source holds these as a separate data set. As to the method: Bio-Layer Interferometry (BLI) experiments were performed using a single channel BLItz system (ForteBio, Menlo Park, Calif.) using Anti-human immunoglobulin G (IgG) Fc (AHC) coated biosensor tips (Pall ForteBio, Menlo Park, Calif.) for capturing human IgGs. Biosensors were first hydrated for at least 10 m in assay buffer (phosphate buffered saline) followed by buffer baseline for 30 s and loading of the human IgGs onto the biosensor tips at concentrations ranging from 25-50 nM for 120 s. The tips were then washed briefly for 30 s with the assay buffer to remove nonspecifically bound proteins or unbound IgGs for obtaining a second buffer baseline. […] All the BLITz runs were measured at room temperature at a stirring speed of 1000 rpm and AHC biosensors were regenerated using 10 mM of glycine (pH 2.7) after the assay. Binding affinity between the immobilized antibodies on the AHC sensors and human CD47 were determined by analyzing the binding kinetic curves using the software BLItz Pro. All the sensorgrams were reference subtracted and globally fitted into a 1:1 model which analysed the binding curves at different concentrations of antigens and generated kinetic constants (KD/Ka/Kd) for the globally fitted data. […]
(§3) The anti-CD47 antibody clones in IgG1 format were analyzed for binding affinity to human CD47.
Take B10: the Kd turned out to be 9 nM.
Consider B3, for which the Kd amounted to 16.1 nM.

The next experiment shares this target. Kind of experiment: BLI (BLItz), IgG captured on anti-human IgG Fc (AHC) tips, human CD47 as analyte, global 1:1 fit. How it is done: Bio-Layer Interferometry (BLI) experiments were performed using a single channel BLItz system (ForteBio, Menlo Park, Calif.) using Anti-human immunoglobulin G (IgG) Fc (AHC) coated biosensor tips (Pall ForteBio, Menlo Park, Calif.) for capturing human IgGs. Biosensors were first hydrated for at least 10 m in assay buffer (phosphate buffered saline) followed by buffer baseline for 30 s and loading of the human IgGs onto the biosensor tips at concentrations ranging from 25-50 nM for 120 s. The tips were then washed briefly for 30 s with the assay buffer to remove nonspecifically bound proteins or unbound IgGs for obtaining a second buffer baseline. The association phase of the IgGs with antigens (500 nM-0 nM) was set up at 120 s which was followed by a dissociation phase (assay buffer alone) for 120 s. All the BLITz runs were measured at room temperature at a stirring speed of 1000 rpm and AHC biosensors were regenerated using 10 mM of glycine (pH 2.7) after the assay. Binding affinity between the immobilized antibodies on the AHC sensors and human CD47 were determined by analyzing the binding kinetic curves using the software BLItz Pro. All the sensorgrams were reference subtracted and globally fitted into a 1:1 model which analysed the binding curves at different concentrations of antigens and generated kinetic constants (KD/Ka/Kd) for the globally fitted data. All the binding curves were subjected to step correction which corrects the misalignment between association and dissociation steps and only the curves with R² values greater than 0.9 were used for analysis.
as §3
Take B10: the koff came out at 0.00371 s⁻¹ and the kon is 451000 M⁻¹ s⁻¹.
B3: the koff was 0.00217 s⁻¹ and the kon was 134000 M⁻¹ s⁻¹.

A further experiment deals with T3, his-tagged human CD47. Kind of experiment: BLI, his-tagged human CD47 on anti-Penta-HIS (HIS1K) sensors, antibody as analyte. How it is done: as §2
On to B3, for which the Kd stood at 10.4 nM.
